Measured values published in US20140087995A1 (published 2014).
Numbered stars: 1 amine (or outer) side, 2 acyl side, 3 side chain; on linkers, the order of the positions; unused ones are H or OH. Bridge positions count the residues as written; N and C are the ends. Side chains are listed from the residue outwards. Ends that are not written are not given here. * marks the point of attachment. C20 diacid = O=C(O)CCCCCCCCCCCCCCCCCCC(=O)*; γGlu = O=C(O)[C@H](CCC(=O)[*:2])N[*:1]

T1: human calcitonin receptor (human, UniProt P30988 25-474)
T1 construct: whole, on cells; Membranes of BHK cells stably transfected with the human calcitonin receptor (Assay VII); also called hCTR; hCT
T1 sequence (looked up): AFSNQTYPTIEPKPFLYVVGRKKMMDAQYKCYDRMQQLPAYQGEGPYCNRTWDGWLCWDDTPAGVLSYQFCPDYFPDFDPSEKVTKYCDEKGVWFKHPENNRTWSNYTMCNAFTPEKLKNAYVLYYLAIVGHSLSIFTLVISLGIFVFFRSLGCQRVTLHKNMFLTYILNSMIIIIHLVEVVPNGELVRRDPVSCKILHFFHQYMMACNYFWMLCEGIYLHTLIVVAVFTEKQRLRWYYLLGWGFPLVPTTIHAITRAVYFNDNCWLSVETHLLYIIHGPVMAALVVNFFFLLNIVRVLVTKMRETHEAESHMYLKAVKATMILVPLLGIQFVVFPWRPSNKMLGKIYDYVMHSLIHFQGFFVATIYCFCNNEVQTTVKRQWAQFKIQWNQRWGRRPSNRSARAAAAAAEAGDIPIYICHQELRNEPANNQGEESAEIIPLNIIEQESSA


What was measured:
[1] = target: T1, human calcitonin receptor; experiment: SPA competition against 125I-calcitonin, membranes of BHK cells with human calcitonin receptor (Assay VII)
Method: Membranes were prepared in the following way; the cells were rinsed with PBS and incubated with Versene for approximately 5 min before harvesting. The cells were flushed with PBS and the cell-suspension was centrifuged for 5 min at 1000 rpm. Cells were homogenized (Ultrathurrax) in a buffer containing 20 mM Na-HEPES and 10 mM EDTA (pH 7.4) and centrifuged at 20.000 rpm for 15 min. The resulting pellet was resuspended, homogenized and centrifuged (20.000 rpm, 15 min) in a buffer containing 20 mM Na-HEPES and 0.1 mM EDTA (pH 7.4, buffer 2). The resulting pellet was resuspended in buffer 2 and protein concentration was measured (BCA protein Assay, Pierce). The homogenate was kept cold during the whole procedure. The membranes were kept at −80° C. until use. Assay was performed in a 384 well Optiplate (PerkinElmer) in a total volume of 40 ul. Membranes were mixed with SPA beads. Final concentration of membranes 35 ng/μL final and Final concentration of SPA beads was 0.05 mg/well. Test-compounds were dissolved in DMSO and further diluted in assay buffer (50 mM Hepes, pH 7.4, 1 mM CaCl2, 5 mM MgCl₂, 0.1% OA and 0.02% Tween20). […] The final mixture was incubated for 120 min with shaking at 400 rpm at 25° C. prior to centrifugation (1500 rpm, 10 min). Samples were analyzed on TopCounter™ (Packard). The […] was calculated using (one site binding competition analysis) GraphPad Prism5 as a measure of receptor affinity.

[2] = target: T1, human calcitonin receptor; experiment: ratio of IC50 at hCTR over IC50 at hAmylin-R (SPA competition assays)
Method: The resulting pellet was resuspended, homogenized and centrifuged (20.000 rpm, 15 min) in a buffer containing 20 mM Na-HEPES and 0.1 mM EDTA (pH 7.4, buffer 2). The resulting pellet was resuspended in buffer 2 and protein concentration was measured (BCA protein Assay, Pierce). The homogenate was kept cold during the whole procedure. The membranes were kept at −80° C. until use. The assay was performed in a 384 well Optiplate (PerkinElmer) in a total volume of 40 ul. Membranes were mixed with SPA beads. Final concentration of membranes 35 ng/μL final and SPA beads was 0.05 mg/well. Test-compounds were dissolved in DMSO and further diluted in assay buffer (50 mM Hepes, pH 7.4, 1 mM CaCl2, 5 mM MgCl₂, 0.1% OA and 0.02% Tween20). […] The final mixture was incubated with shaking at 400 rpm for 120 min at 25° C. prior to centrifugation (1500 rpm, 10 min). Samples were analyzed on TopCounter™ (Packard). The IC₅₀ was calculated using (one site binding competition analysis) GraphPad Prism5 as a measure of receptor affinity.
Membranes were prepared in the following way; the cells were rinsed with PBS and incubated with Versene for approximately 5 min before harvesting. The cells were flushed with PBS and the cell-suspension was centrifuged for 5 min at 1000 rpm. Cells were homogenized (Ultrathurrax) in a buffer containing 20 mM Na-HEPES and 10 mM EDTA (pH 7.4) and centrifuged at 20.000 rpm for 15 min. The resulting pellet was resuspended, homogenized and centrifuged (20.000 rpm, 15 min) in a buffer containing 20 mM Na-HEPES and 0.1 mM EDTA (pH 7.4, buffer 2). The resulting pellet was resuspended in buffer 2 and protein concentration was measured (BCA protein Assay, Pierce). The homogenate was kept cold during the whole procedure. The membranes were kept at −80° C. until use. Assay was performed in a 384 well Optiplate (PerkinElmer) in a total volume of 40 ul. Membranes were mixed with SPA beads.

Binder	IC50 [1]	Ratio hCT/hAmylin binding [2]
{C20 diacid-γGlu}-GRCNTATCATQRLAHFLRHSSPNFGAIPSSTNVGHNTY-NH2 (disulfide 3-8; SMILES CC[C@H](C)[C@H](NC(=O)[C@H](C)NC(=O)CNC(=O)[C@H](Cc1ccccc1)NC(=O)[C@H](CC(N)=O)NC(=O)[C@@H]1CCCN1C(=O)[C@H](CO)NC(=O)[C@H](CO)NC(=O)[C@H](Cc1c[nH]cn1)NC(=O)[C@H](CCCNC(=N)N)NC(=O)[C@H](CC(C)C)NC(=O)[C@H](Cc1ccccc1)NC(=O)[C@H](Cc1c[nH]cn1)NC(=O)[C@H](C)NC(=O)[C@H](CC(C)C)NC(=O)[C@H](CCCNC(=N)N)NC(=O)[C@H](CCC(N)=O)NC(=O)[C@@H](NC(=O)[C@H](C)NC(=O)[C@@H]1CSSC[C@H](NC(=O)[C@H](CCCNC(=N)N)NC(=O)CNC(=O)CC[C@H](NC(=O)CCCCCCCCCCCCCCCCCCC(=O)O)C(=O)O)C(=O)N[C@@H](CC(N)=O)C(=O)N[C@@H]([C@@H](C)O)C(=O)N[C@@H](C)C(=O)N[C@@H]([C@@H](C)O)C(=O)N1)[C@@H](C)O)C(=O)N1CCC[C@H]1C(=O)N[C@@H](CO)C(=O)N[C@@H](CO)C(=O)N[C@H](C(=O)N[C@@H](CC(N)=O)C(=O)N[C@H](C(=O)NCC(=O)N[C@@H](Cc1c[nH]cn1)C(=O)N[C@@H](CC(N)=O)C(=O)N[C@H](C(=O)N[C@@H](Cc1ccc(O)cc1)C(N)=O)[C@@H](C)O)C(C)C)[C@@H](C)O, also called compound 100)	66.3 nM	65.3
{C20 diacid-γGlu}-GRCNTATCATQRLAHFLRHSSPNFGAIPSSTNVGPNTY-NH2 (disulfide 3-8; SMILES CC[C@H](C)[C@H](NC(=O)[C@H](C)NC(=O)CNC(=O)[C@H](Cc1ccccc1)NC(=O)[C@H](CC(N)=O)NC(=O)[C@@H]1CCCN1C(=O)[C@H](CO)NC(=O)[C@H](CO)NC(=O)[C@H](Cc1c[nH]cn1)NC(=O)[C@H](CCCNC(=N)N)NC(=O)[C@H](CC(C)C)NC(=O)[C@H](Cc1ccccc1)NC(=O)[C@H](Cc1c[nH]cn1)NC(=O)[C@H](C)NC(=O)[C@H](CC(C)C)NC(=O)[C@H](CCCNC(=N)N)NC(=O)[C@H](CCC(N)=O)NC(=O)[C@@H](NC(=O)[C@H](C)NC(=O)[C@@H]1CSSC[C@H](NC(=O)[C@H](CCCNC(=N)N)NC(=O)CNC(=O)CC[C@H](NC(=O)CCCCCCCCCCCCCCCCCCC(=O)O)C(=O)O)C(=O)N[C@@H](CC(N)=O)C(=O)N[C@@H]([C@@H](C)O)C(=O)N[C@@H](C)C(=O)N[C@@H]([C@@H](C)O)C(=O)N1)[C@@H](C)O)C(=O)N1CCC[C@H]1C(=O)N[C@@H](CO)C(=O)N[C@@H](CO)C(=O)N[C@H](C(=O)N[C@@H](CC(N)=O)C(=O)N[C@H](C(=O)NCC(=O)N1CCC[C@H]1C(=O)N[C@@H](CC(N)=O)C(=O)N[C@H](C(=O)N[C@@H](Cc1ccc(O)cc1)C(N)=O)[C@@H](C)O)C(C)C)[C@@H](C)O)	7.87 nM	36.2
{C20 diacid-γGlu}-GRCNTATCATQRLAAFLRHSSPNFGAIPSSTNVGHNTY-NH2 (disulfide 3-8; SMILES CC[C@H](C)[C@H](NC(=O)[C@H](C)NC(=O)CNC(=O)[C@H](Cc1ccccc1)NC(=O)[C@H](CC(N)=O)NC(=O)[C@@H]1CCCN1C(=O)[C@H](CO)NC(=O)[C@H](CO)NC(=O)[C@H](Cc1c[nH]cn1)NC(=O)[C@H](CCCNC(=N)N)NC(=O)[C@H](CC(C)C)NC(=O)[C@H](Cc1ccccc1)NC(=O)[C@H](C)NC(=O)[C@H](C)NC(=O)[C@H](CC(C)C)NC(=O)[C@H](CCCNC(=N)N)NC(=O)[C@H](CCC(N)=O)NC(=O)[C@@H](NC(=O)[C@H](C)NC(=O)[C@@H]1CSSC[C@H](NC(=O)[C@H](CCCNC(=N)N)NC(=O)CNC(=O)CC[C@H](NC(=O)CCCCCCCCCCCCCCCCCCC(=O)O)C(=O)O)C(=O)N[C@@H](CC(N)=O)C(=O)N[C@@H]([C@@H](C)O)C(=O)N[C@@H](C)C(=O)N[C@@H]([C@@H](C)O)C(=O)N1)[C@@H](C)O)C(=O)N1CCC[C@H]1C(=O)N[C@@H](CO)C(=O)N[C@@H](CO)C(=O)N[C@H](C(=O)N[C@@H](CC(N)=O)C(=O)N[C@H](C(=O)NCC(=O)N[C@@H](Cc1c[nH]cn1)C(=O)N[C@@H](CC(N)=O)C(=O)N[C@H](C(=O)N[C@@H](Cc1ccc(O)cc1)C(N)=O)[C@@H](C)O)C(C)C)[C@@H](C)O)	29.2 nM	68.6

These reach a lower IC50 [1]. Values come first.

IC50 [1]	Ratio hCT/hAmylin binding [2]	Binder
2.13 nM	17.6	K([γGlu-γGlu-C20 diacid])CNTATCATQRLAEFLRHSSPNFGAIPSSTNVGPETY-NH2 (disulfide 2-7; N-terminus assumed; SMILES CC[C@H](C)[C@H](NC(=O)[C@H](C)NC(=O)CNC(=O)[C@H](Cc1ccccc1)NC(=O)[C@H](CC(N)=O)NC(=O)[C@@H]1CCCN1C(=O)[C@H](CO)NC(=O)[C@H](CO)NC(=O)[C@H](Cc1c[nH]cn1)NC(=O)[C@H](CCCNC(=N)N)NC(=O)[C@H](CC(C)C)NC(=O)[C@H](Cc1ccccc1)NC(=O)[C@H](CCC(=O)O)NC(=O)[C@H](C)NC(=O)[C@H](CC(C)C)NC(=O)[C@H](CCCNC(=N)N)NC(=O)[C@H](CCC(N)=O)NC(=O)[C@@H](NC(=O)[C@H](C)NC(=O)[C@@H]1CSSC[C@H](NC(=O)[C@@H](N)CCCCNC(=O)CC[C@H](NC(=O)CC[C@H](NC(=O)CCCCCCCCCCCCCCCCCCC(=O)O)C(=O)O)C(=O)O)C(=O)N[C@@H](CC(N)=O)C(=O)N[C@@H]([C@@H](C)O)C(=O)N[C@@H](C)C(=O)N[C@@H]([C@@H](C)O)C(=O)N1)[C@@H](C)O)C(=O)N1CCC[C@H]1C(=O)N[C@@H](CO)C(=O)N[C@@H](CO)C(=O)N[C@H](C(=O)N[C@@H](CC(N)=O)C(=O)N[C@H](C(=O)NCC(=O)N1CCC[C@H]1C(=O)N[C@@H](CCC(=O)O)C(=O)N[C@H](C(=O)N[C@@H](Cc1ccc(O)cc1)C(N)=O)[C@@H](C)O)C(C)C)[C@@H](C)O)
3 nM	26.5	{C20 diacid-γGlu}-GRCNTATCATQRLAAFLRHSSPNFGAIPSSTNVGPNTY-NH2 (disulfide 3-8)
